Toxicity findings and Unscheduled deaths data for 1 molecule are collected here from patent US20210032294A1, “MODIFIED PlySs2 LYSINS AND USES THEREOF” (CONTRAFECT CORPORATION, priority 2018, published 2021).

“Also recorded” adds a separate entry of the source.

This series can be described thus: 7-day repeated 2-hour infusion toxicity study in rats. The format is in vivo, Sprague Dawley rats. The following applies: rats, 0.5, 2.5, or 10 mg/kg/day, 7 consecutive days. The protocol:
The objective of this study was to evaluate the potential toxicity and toxicokinetic profile of modified lysin polypeptide pp296 when administered daily by 2-hour infusion to Sprague Dawley rats for 7 consecutive days.
Experimental procedures, animals and treatment are summarized below in Table 11.
All surviving animals were submitted for necropsy on Day 8 (Terminal Euthanasia). Necropsies were performed and organ weights were collected by Testing Facility personnel. Statistical analysis of organ weight data was performed by the testing facility engaged on a fee-for-service commercial basis. Tissues required for microscopic evaluation were trimmed, processed routinely, embedded in paraffin, and stained with hematoxylin and eosin by Charles River Laboratories Ashland, LLC. Microscopic evaluation was conducted by a board-certified veterinary pathologist on select protocol-specified tissues from all animals in Groups 1 through 4 and all gross lesions from all animals. Tissues were evaluated by light microscopy.

B1: pp296: Modified PlySs2 lysin, SEQ ID NO: 6: L92W, V104S, V128T, Y137S, Y164K, N184D, S198Q (protein)
chain: MTTVNEALNNVRAQVGSGVSVGNGECYALASWYERMISPDATVGLGAGVGWVSGAIGDTISAKNIGSSYNWQANGWTVSTSGPFKAGQIVTWGATPGNPYGHVSIVEAVDGDRLTILEQNYGGKRYPTRNYYSAASSRQQVVHYITPPGTVAQSAPNLAGSRSKRETGTMTVTVDALNVRRAPDTSGEIVAVYKRGEQFDYDTAIIDVNGYAWVSYIGGSGKRNYVATGATKDGKRFGNAWGTFK
B1: the Unscheduled deaths result is recorded as “no unscheduled deaths”. For the setting “2-hour infusion”, the Toxicity findings entry was “No toxicity was found; also recorded: no pp296-related gross, microscopic, or organ weight findings”.
